Measurements reported in patent publication US7893197B2, “Relaxin-3 chimeric polypeptides and their preparation and use” (Janssen Pharmaceutica N.V., priority 2005, dated 2011).

Experiments:
LGR7 = biological target: T1, LGR7 (Homo sapiens, UniProt Q9HBX9); test: Radioligand competition binding, [125I]-relaxin-3, live transfected COS-7 cells
T1 construct: Human LGR7 cDNA containing the complete coding region was PCR amplified; expressed in transfected cells
T1 sequence (Q9HBX9 1-757): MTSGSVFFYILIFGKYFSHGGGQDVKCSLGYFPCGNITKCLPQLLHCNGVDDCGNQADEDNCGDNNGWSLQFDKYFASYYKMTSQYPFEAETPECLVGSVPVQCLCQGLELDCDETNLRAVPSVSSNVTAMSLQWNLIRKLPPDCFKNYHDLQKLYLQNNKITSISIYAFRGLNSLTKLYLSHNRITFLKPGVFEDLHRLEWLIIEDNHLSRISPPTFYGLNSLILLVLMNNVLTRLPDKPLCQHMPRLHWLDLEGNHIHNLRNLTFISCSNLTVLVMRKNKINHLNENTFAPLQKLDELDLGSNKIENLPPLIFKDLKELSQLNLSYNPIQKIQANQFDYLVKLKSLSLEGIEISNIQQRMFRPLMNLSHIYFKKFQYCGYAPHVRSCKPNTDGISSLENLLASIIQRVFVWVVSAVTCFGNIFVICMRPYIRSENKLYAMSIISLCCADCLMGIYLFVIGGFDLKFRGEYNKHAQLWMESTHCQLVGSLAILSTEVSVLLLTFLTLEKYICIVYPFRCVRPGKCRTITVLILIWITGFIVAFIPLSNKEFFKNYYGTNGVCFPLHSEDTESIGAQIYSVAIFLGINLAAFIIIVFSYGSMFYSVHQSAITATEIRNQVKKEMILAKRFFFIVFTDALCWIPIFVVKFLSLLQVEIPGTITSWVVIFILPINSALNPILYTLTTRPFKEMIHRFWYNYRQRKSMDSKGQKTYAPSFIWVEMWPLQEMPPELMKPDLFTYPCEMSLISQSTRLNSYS
Experimental: For GPCR135, GPCR142, and LGR7, [^125I]-relaxin-3 was used as the radioligand at a final concentration of 100 pM. Different unlabeled peptides were used in the binding assay as the competitors. […] Different unlabeled peptides including relaxin-3 chimeras at various concentrations were added to the binding assay as the competitors. Data represent mean±SEM (n=3).
Radioligand binding assays for LGR7 and LGR8 were performed using live COS-7 cells transiently transfected with LGR7 or LGR8 expression plasmids in 15-cm culture dishes using LipofectAmine (Invitrogen). Two days after transfection, the transfected cells were detached from the 15-cm culture dished using phosphate buffered saline (PBS) plus 10 mM EDTA, seeded into 96-well opaque poly-D-lysine coated culture plates and used for radioligand binding assays. For LGR7, [^125I]-relaxin-3 was used as the tracer. […] [^125I]-labeled tracer was added in binding reactions at a final concentration of 100 pM in binding buffer containing DMEM plus 50 mM HEPES and 1% bovine serum albumin. Unlabeled relaxin-3 and relaxin-3 chimeric polypeptides were added at various concentrations to the binding assays as the competitors, as indicated (FIG. 3). The binding mixtures were incubated at room temperature for 1 hour. The unbound radioligand was removed by aspiration of the binding buffer. The cells were washed with PBS. The bound radioligand was counted in a scintillation counter (TopCount/NTX). The results were analyzed using Prism 3.0 program (Graphpad, San Diego, Calif.). The IC50 values represent the ligand concentrations that inhibit 50% of the maximum specific binding.

LGR8 = biological target: T2, LGR8 (Homo sapiens, UniProt Q8WXD0); test: Radioligand competition binding, [125I]-INSL3, live transfected COS-7 cells; settings: highest concentration 1 μM
T2 construct: Human LGR8 cDNA containing the complete coding region was PCR amplified; expressed in transfected cells
T2 sequence (Q8WXD0 whole entry): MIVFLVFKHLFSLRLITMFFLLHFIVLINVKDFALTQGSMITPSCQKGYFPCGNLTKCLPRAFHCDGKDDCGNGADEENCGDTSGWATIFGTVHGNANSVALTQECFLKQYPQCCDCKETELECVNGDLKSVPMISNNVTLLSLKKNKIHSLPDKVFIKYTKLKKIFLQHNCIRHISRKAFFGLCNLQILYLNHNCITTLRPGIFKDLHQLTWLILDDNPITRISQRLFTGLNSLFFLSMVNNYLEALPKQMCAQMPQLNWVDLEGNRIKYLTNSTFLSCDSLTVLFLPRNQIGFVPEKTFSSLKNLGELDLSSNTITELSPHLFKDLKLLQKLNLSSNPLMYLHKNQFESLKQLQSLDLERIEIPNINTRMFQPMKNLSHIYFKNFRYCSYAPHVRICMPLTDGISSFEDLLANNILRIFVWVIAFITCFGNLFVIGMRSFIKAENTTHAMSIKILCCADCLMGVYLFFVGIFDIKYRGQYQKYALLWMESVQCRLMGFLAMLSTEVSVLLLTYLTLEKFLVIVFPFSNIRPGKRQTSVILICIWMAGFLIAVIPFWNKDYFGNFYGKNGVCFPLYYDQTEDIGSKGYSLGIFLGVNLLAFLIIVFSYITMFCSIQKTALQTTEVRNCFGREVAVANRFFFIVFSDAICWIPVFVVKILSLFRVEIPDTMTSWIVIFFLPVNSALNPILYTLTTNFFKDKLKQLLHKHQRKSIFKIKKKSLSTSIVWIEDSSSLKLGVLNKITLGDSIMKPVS
Text: FIGS. 3A-3D illustrate the characterization of various relaxin-3 chimeric polypeptides using radioligand binding assays. Different relaxin-3 chimeric polypeptides were characterized for their receptor binding properties for human recombinant GPCR135 (FIG. 3A), GPCR142 (FIG. 3B), LGR7 (FIG. 3C), or LGR8 (FIG. 3D). For GPCR135, GPCR142, and LGR7, [^125I]-relaxin-3 was used as the radioligand at a final concentration of 100 pM. Different unlabeled peptides were used in the binding assay as the competitors. For LGR8, [^125I]-INSL3 was used as the radioligand at a final concentration of 100 pM. Different unlabeled peptides including relaxin-3 chimeras at various concentrations were added to the binding assay as the competitors. Data represent mean±SEM (n=3).
Radioligand binding assays for LGR7 and LGR8 were performed using live COS-7 cells transiently transfected with LGR7 or LGR8 expression plasmids in 15-cm culture dishes using LipofectAmine (Invitrogen). Two days after transfection, the transfected cells were detached from the 15-cm culture dished using phosphate buffered saline (PBS) plus 10 mM EDTA, seeded into 96-well opaque poly-D-lysine coated culture plates and used for radioligand binding assays. For LGR7, [^125I]-relaxin-3 was used as the tracer. For LGR8, [^125I]-INSL3 (specific activity: 2200 Ci/mmol) was used as the tracer. [^125I]-labeled tracer was added in binding reactions at a final concentration of 100 pM in binding buffer containing DMEM plus 50 mM HEPES and 1% bovine serum albumin. Unlabeled relaxin-3 and relaxin-3 chimeric polypeptides were added at various concentrations to the binding assays as the competitors, as indicated (FIG. 3). The binding mixtures were incubated at room temperature for 1 hour. The unbound radioligand was removed by aspiration of the binding buffer. The cells were washed with PBS. The bound radioligand was counted in a scintillation counter (TopCount/NTX). The results were analyzed using Prism 3.0 program (Graphpad, San Diego, Calif.). The IC50 values represent the ligand concentrations that inhibit 50% of the maximum specific binding.

GPCR135 = biological target: T3, GPCR135 (Homo sapiens, UniProt Q9NSD7); test: Inhibition of forskolin stimulated β-galactosidase expression in SK-N-MC/β-gal cells; type: cell-based
T3 construct: expressed in transfected cells
T3 sequence (Q9NSD7 1-469): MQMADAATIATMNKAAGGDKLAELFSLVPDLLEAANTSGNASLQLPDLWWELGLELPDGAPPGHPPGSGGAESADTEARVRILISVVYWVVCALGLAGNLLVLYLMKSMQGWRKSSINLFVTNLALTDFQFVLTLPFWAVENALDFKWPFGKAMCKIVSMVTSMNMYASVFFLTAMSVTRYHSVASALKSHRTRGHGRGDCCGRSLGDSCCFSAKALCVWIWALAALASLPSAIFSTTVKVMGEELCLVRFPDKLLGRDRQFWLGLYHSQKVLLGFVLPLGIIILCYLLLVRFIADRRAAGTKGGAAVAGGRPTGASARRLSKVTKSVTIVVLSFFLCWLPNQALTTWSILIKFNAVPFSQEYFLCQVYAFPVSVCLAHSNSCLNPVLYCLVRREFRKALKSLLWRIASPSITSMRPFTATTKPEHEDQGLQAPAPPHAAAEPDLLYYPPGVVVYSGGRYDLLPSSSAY
Experimental: (§1) In FIG. 1A, SK-N-MC/β-gal cells expressing human GPCR135 were stimulated with relaxin-3, relaxin-3 B-chain, porcine relaxin, or INSL3 at various concentrations to inhibit the forskolin stimulated β-galactosidase expression. Forskolin was added to cells at a final concentration of 5 μM to stimulate the β-galactosidase expression. FIG. 1B depicts results for SK-N-MC/β-gal cells expressing human GPCR142 stimulated as in FIG. 1A. In FIG. 1C, SK-N-MC/β-gal cells expressing human LGR7 were stimulated with relaxin-3, relaxin-3 B-chain, porcine relaxin, and INSL3 at various concentrations to induce the β-galactosidase expression. The intracellular β-galactosidase activities were measured by a colorimetric assay using CRGP as the substrate and reading the absorbance at a wavelength of 570 nm. For FIG. 1D, SK-N-MC/β-gal cells expressing human LGR8 were stimulated as in FIG. 1C.
(§2) Different chimeric polypeptides at various concentrations were added to SK-N-MC/β-gal cells expressing human GPCR135 (FIG. 4A) or GPCR142 (FIG. 4B) to inhibit forskolin stimulated β-galactosidase expression. […] In parallel, chimeric polypeptides at various concentrations were added to SK-N-MC/β-gal cells expressing human LGR7 (FIG. 4C) and LGR8 (FIG. 4D) to stimulate β-galactosidase expression. Relaxin-3 and INSL3 were used as positive controls for LGR7 and LGR8, respectively. Intracellular β-galactosidase activity was measured by a colorimetric assay using CRGP as the substrate and reading the absorbance at wavelength of 570 nm. Data represent mean±SEM (n=3).
(§3) In such SK-N-MC/β-gal cells, an increase in intracellular cAMP concentration leads to increased β-galactosidase gene expression, the activity of which is measured using Chlorophenol Red-β-D-Galactopyranoside (CPRG) as the substrate.
(§4) The inventive chimeric polypeptides were each independently tested for their ability to activate either GPCR135, GPCR142, LGR7, or LGR8, respectively, in separate pools of SK-N-MC/β-gal cells (see supra), each pool stably expressing one of the respective receptors, as indicated (FIG. 4).
(§5) Cells were seeded in 96-well tissue culture plate at a density of 30,000 cells/well in MEM plus 10% fetal serum, sodium pyruvate, penicillin, streptomycin, and G418 (400 mg/L). For cells expressing GPCR135 or GPCR142, forskolin was added to cells at a final concentration of 5 μM to stimulate intracellular cAMP accumulation. Different concentrations of each of the inventive polypeptides were then added to the cells to inhibit the forskolin induced cAMP accumulation. For cells expressing LGR7 or LGR8, intracellular cAMP was stimulated with each of the inventive chimeric polypeptides at various concentrations.
(§6) For all cells, after adding the chimeric polypeptides, cells were incubated for 6 additional hours in 37° C. incubator. The media was then aspirated and the β-galactosidase activities measured as previously described (Liu et al., 2001, Molecular Pharmacology, 59:420-426). The results were analyzed by Prism 3.0 software.

GPCR142 = biological target: T4, GPCR142 (Homo sapiens, UniProt Q8TDU9, L329S); test: as above; type: cell-based
T4 construct: expressed in transfected cells
T4 sequence (Q8TDU9 whole entry L329S): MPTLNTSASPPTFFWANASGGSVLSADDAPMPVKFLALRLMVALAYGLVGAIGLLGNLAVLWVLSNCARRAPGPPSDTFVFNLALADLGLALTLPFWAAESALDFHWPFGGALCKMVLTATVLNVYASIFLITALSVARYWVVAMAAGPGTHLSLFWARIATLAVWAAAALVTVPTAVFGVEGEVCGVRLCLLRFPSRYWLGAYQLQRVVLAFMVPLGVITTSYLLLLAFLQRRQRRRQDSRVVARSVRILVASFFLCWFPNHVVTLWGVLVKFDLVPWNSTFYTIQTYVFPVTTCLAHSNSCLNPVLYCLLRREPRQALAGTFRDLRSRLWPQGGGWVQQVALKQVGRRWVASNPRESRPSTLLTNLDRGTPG
Experimental: as §1, §2, §3, §4, §5, §6

[1] = highest concentration tested 1 μM
[2] = inhibition of 5 μM forskolin stimulated β-galactosidase expression, mean ± SEM, n = 3

Substance | binding to LGR7, in words (LGR7; [1]) | binding affinity for LGR8, in words (LGR8) | agonist activity at GPCR135, in words (GPCR135; [1]) | agonist activity at GPCR142, in words (GPCR142; [1]) | EC50 to activate GPCR135 (GPCR135; [2]) | EC50 to activate GPCR142 (GPCR142; [2]) | affinity for LGR7 (LGR7; discussion) [nM]
R3/I4: chimeric polypeptide: human relaxin-3 B-chain and INSL4 A-chain; mature polypeptide SEQ ID NO:22 (RAAPYGVRLCGREFIRAVIFTCGGSRWFDPFCCEVICDDGTSVKLC; Human Relaxin-3/Insulin-like 4 chimeric mature polypeptide) | inactive | no binding affinity | stimulated GPCR135 or GPCR142 at the highest concentration (1 μM) tested only | stimulated GPCR135 or GPCR142 at the highest concentration (1 μM) tested only |  |  | 
R3/I5: chimeric polypeptide: human relaxin-3 B-chain and INSL5 A-chain; mature polypeptide SEQ ID NO:23 (RAAPYGVRLCGREFIRAVIFTCGGSRWQDLQTLCCTDGCSMTDLSALC; Human Relaxin-3/Insulin-like 5 chimeric mature polypeptide) |  | no binding affinity |  |  | low nanomolar range | low nanomolar range | 
R3/I6: chimeric polypeptide: human relaxin-3 B-chain and INSL6 A-chain; mature polypeptide SEQ ID NO:24 (RAAPYGVRLCGREFIRAVIFTCGGSRWGYSEKCCLTGCTKEELSIAC; Human Relaxin-3/Insulin-like 6 chimeric mature polypeptide) |  | no binding affinity |  |  |  |  | 10 to 15
